These results are taken from article PMC3233575, “DC-SIGN Increases the Affinity of HIV-1 Envelope Glycoprotein Interaction with CD4” (PLoS ONE, 2011).

This data set deals with the molecule itself. Put plainly: SEC; two tandem Superdex 200 3.2/30 PC columns, 100 mM Tris-HCl pH 7.9, 0.15 M NaCl, room temperature, about 50 µg refolded protein; monomer to oligomer equilibrium.

By stoichiometry N is commonly meant the number of molecules, sites or subunits per partner or assembly.

B1: soluble recombinant DC-SIGN, entire extracellular domain (residues 70-404) (domain or fragment)
chain: EQSRQDAIYQNLTQLKAAVGELSEKSKLQEIYQELTQLKAAVGELPEKSKLQEIYQELTRLKAAVGELPEKSKLQEIYQELTWLKAAVGELPEKSKMQEIYQELTRLKAAVGELPEKSKQQEIYQELTRLKAAVGELPEKSKQQEIYQELTRLKAAVGELPEKSKQQEIYQELTQLKAAVERLCHPCPWEWTFFQGNCYFMSNSQRNWHDSITACKEVGAQLVVIKSAEEQNFLQLQSSRSNRFTWMGLSDLNQEGTWQWVDGSPLLPSFKQYWNRGEPNNVGEEDCAEFSGNGWNDDKCNLAKFWICKKSAASCSRDEEQFLSPAPATPNPPPA
notes: DC-SIGN, entire extracellular domain, residues 70-404 of GenBank NP_066978; cDNA of immature monocyte-derived dendritic cells; the sense primer carries an ATG before the first DC-SIGN codon; The preparation is a monomer:tetramer equilibrium (3.3:1 tetramer to monomer by SEC); the tetramer predominates. pET15b normally adds an N-terminal His6 tag with a thrombin site (surmised); no cleavage is …
In the case of B1, the “stoichiometry N” value was 4.
